Results published in patent publication US20070020258A1.

B1: MAE11 (antibody, V domains shown)
VH: DVQLQESGPGLVKPSQSLSLACSVTGYSITSGYSWNWIRQFPGNKLEWMGSITYDGSSNYNPSLKNRISVTRDTSQNQFFLKLNSATAEDTATYYCARGSHYFGHWHFAVWGAGTTVTVSS
VL: DIVLTQSPASLAVSLGQRATISCKASQSVDYDGDSYMNWYQQKPGQPPILLIYAASYLGSEIPARFSGSGSGTDFTLNIHPVEEEDAATFYCQQSHEDPYTFGAGTKLEIK
B2: MAE15 (antibody, V domains shown)
VH: DVQHQESEPDLVKPSQSLSLTCTVTGYSITSGYNRHWIRQFPGNKLEWMGYIHYSGSTNYNPSLKRRISITRDTSKNQFFLQLNSVTTEDTATYYCARGSIYYYGSRYRYFDVWGAGTTVTVSS
VL: DIQLTQSPASLAVSLGQRATISCKASQSVDYDGDSYMNWYQQKPGQPPKLLIYAASNLESGIPARFSGSGSGTDFTLNIHPVEEEDAATYYCQQSNEDPFTFGAGT
B3: MAE13 (antibody, V domains shown)
VH: DVQLQESGPGLVKPSQSLSLTCTVTGYTITSDNAWNWIRQFPGNKLEWMGYINHSGTTSYNPSLKSRISITRDTSKNQFFLQLNSVTTEDTATYYCAWVVAYAMDYWGQGTSVTVSS
VL: DIVMTQSQKFMSTSVGDRVSVTCKASQNVSSNVAWYQQKPGQSPKALIYSASYRYSGVPDRFTGSGSGTDFTLTISNVQSEDLAEYFCQQYYTYPLYTFGGGTKLEIKR

target: membrane IgE on U266 B1 cells (human) (UniProt P01854); experiment: FACS, U266 B1 cells

EC50	Binder
0.15 µg/mL	B1
6 µg/mL	B2
1 µg/mL	B3
